The values below come from article PMC7350415.

Assay [1] concerns the target ovine OX40 (OaOX40), full length, C-terminally V5 tagged, on transfected HEK293 cells (Ovis aries). Put plainly: immunostaining of cells or tissue; HEK293 cells transfected with the V5-tagged receptor incubated with 10 μg of purified ligand for 15 min at 4 °C, then fixed; ligand detected with anti-ovine Fc antibody, receptor with anti-V5; confocal microscopy, pixel colocalisation in 25-40 cells.

Assay [2] has the same target. As to the kind of experiment: immunostaining of cells or tissue; HEK293 cells transfected with the V5-tagged receptor incubated with conditioned media from adenovirus-infected cells for 15 min, then fixed; ligand detected with anti-Fc antibody, receptor with anti-V5; confocal microscopy, pixel colocalisation in 25-40 cells.
Assay [3] has as its target ovine CD27 (OaCD27), full length, C-terminally V5 tagged, on transfected HEK293 cells (Ovis aries). Described as above.
The target is the same in assay [4]. Put plainly: immunostaining of cells or tissue; HEK293 cells transfected with the V5-tagged receptor incubated with 10 μg of purified ligand for 15 min at 4 °C, then fixed; ligand detected with anti-ovine Fc antibody, receptor with anti-V5; confocal microscopy, pixel colocalisation in 25-40 cells.

Turning to “purified recombinant ovine OX40L (rOaOX40L), baculovirus-expressed: ovine IgG1 Fc - isoleucine zipper - predicted extracellular domain of ovine OX40L (Fc fusion)”, in assay [1], the percentage of ligand sharing pixel localisation with its receptor turned out to be 59.3%.

Substance “secreted rOaOX40L expressed from recombinant adenovirus Ad5-OaOX40L (same construct as the baculovirus protein) (Fc fusion)” had a percentage of ligand signal colocalising with its receptor in assay [2] of 60.4%.

“secreted rOaCD70 expressed from recombinant adenovirus Ad5-OaCD70 (same construct as the baculovirus protein) (Fc fusion)” returned a percentage of ligand signal colocalising with its receptor in assay [3] of 73.5%.

For “purified recombinant ovine CD70 (rOaCD70), baculovirus-expressed: ovine IgG1 Fc - isoleucine zipper - predicted extracellular domain of ovine CD70 (Fc fusion)”, the percentage of ligand sharing pixel localisation with its receptor in assay [4] turned out to be 72.8%.
